The series has as its target T1, Ngo-Lig E (ATP-dependent DNA ligase Lig E), mature, His-tagged (Neisseria gonorrhoeae MS11, UniProt PDB:8U6X_1 1-279).
T1 sequence: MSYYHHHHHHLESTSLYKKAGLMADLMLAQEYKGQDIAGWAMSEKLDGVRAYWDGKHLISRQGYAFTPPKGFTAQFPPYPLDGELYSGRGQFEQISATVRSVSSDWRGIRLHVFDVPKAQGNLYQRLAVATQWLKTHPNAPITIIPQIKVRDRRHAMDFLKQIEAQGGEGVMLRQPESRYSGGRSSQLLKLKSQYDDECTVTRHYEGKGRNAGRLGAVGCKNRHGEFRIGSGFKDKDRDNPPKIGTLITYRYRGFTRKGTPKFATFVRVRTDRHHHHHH
The series can be described thus: X-ray crystallography (2.44 A); 5 mM EDTA; enzyme-adenylate; open non-catalytic conformation, non-specific engagement of unbroken duplex, only 6 bp visible (averaged register); Crystallization: 478.7 uM protein, 1.2 molar excess DNA, 5 mM EDTA, 1 h on ice; crystals in 0.5 M potassium thiocyanate, 0.1 M Bis Tris Propane pH 8.0, 18 C. The conditions noted are these: protein: recombinant; tags: C-terminal His (N-terminal His-MBP tag cleaved by TEV); nicked duplex, 3 strands; as printed the 9-mer and 11-mer leave a 1-nt gap (C) opposite the 21-mer; blunt outer ends.

B1: nicked 21-mer duplex used for co-crystallization (dsDNA)
DNA 1: ATTGCGACC
DNA 2: CACTATCGGAA
DNA 3: TTCCGATAGTGGGGTCGCAAT
modifications: 5'-phosphate on CACTATCGGAA
With B1, the binding result is reported as “binds”.

The values are drawn from publication PMC10799422, “A role for the ATP-dependent DNA ligase lig E of Neisseria gonorrhoeae in biofilm formation”.
